Experimental data as given in patent US20020147306A1 (published 2002).
No end group written: not given here.

T1: ephrin B1 Val deletion (UniProt P98172 28-346, limits assumed)
T1 construct: whole, on cells; Tested from lysates of transfected Cos-1 cells; also called ephrin B1 Val deletion mutant; ephrin B1 lacking the C-terminal Val
T1 sequence (looked up): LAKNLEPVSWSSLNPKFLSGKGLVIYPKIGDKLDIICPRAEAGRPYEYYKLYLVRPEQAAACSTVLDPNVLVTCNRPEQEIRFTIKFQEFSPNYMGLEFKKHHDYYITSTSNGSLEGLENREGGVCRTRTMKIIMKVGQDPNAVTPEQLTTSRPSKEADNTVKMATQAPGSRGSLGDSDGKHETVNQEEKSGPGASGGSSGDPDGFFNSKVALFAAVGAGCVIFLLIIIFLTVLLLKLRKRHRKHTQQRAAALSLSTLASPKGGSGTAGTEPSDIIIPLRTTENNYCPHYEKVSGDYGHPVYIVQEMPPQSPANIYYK

B1: GST-syntenin fusion protein (full length: residues 1-299) (other, mouse, UniProt O08992 1-299, looked up)
chain: MSLYPSLEDLKVDKVIQAQTAYSANPASQAFVLVDASAALPPDGNLYPKLYPELSQYMGLSLNEAEICESMPMVSGAPAQGQLVARPSSVNYMVAPVTGNDAGIRRAEIKQGIREVILCKDQDGKIGLRLKSIDNGIFVQLVQANSPASLVGLRFGDQVLQINGENCAGWSSDKAHKVLKQAFGEKITMTIRDRPFERTVTMHKDSSGHVGFIFKSGKITSIVKDSSAARNGLLTDHHICEINGQNVIGLKDAQIADILSTAGTVVTITIMPTFIFEHIIKRMAPSIMKSLMDHTIPEV
notes: range 1-299; also called full-length syntenin; GST fusion of full-length syntenin; not shown: glutathione S-transferase (GST) from vector pGEX4T2
B2: syntenin-FLAG (other, mouse, UniProt O08992 1-299, looked up, not shown: small tags and cut ends)
chain: B1 chain
notes: range 1-299; Co-expressed with ephrin B1 in Cos-1 cells
B3: fluorescein-labelled NIYYKV peptide (peptide)
peptide: NIYYKV
modifications: also: 5-(and-6-)carboxyfluorescein label, site not given here
notes: 25 nM probe in fluorescence polarization; also called unphosphorylated peptide probe

Experiments:
ephrin B1 Val deletion [1] = target: T1, ephrin B1 Val deletion; test: GST mix with lysates of transfected Cos-1 cells, anti-ephrin B1 immunoblot
Method: FIGS. 3A-C. FAP-1 PDZ5 and syntenin bind specifically to ephrin B1 in GST-mixes. Cos-1 cells were transiently transfected with either wild-type ephrin B1 (W. T.) or the ephrin B1 Val deletion (Val Δ) or were untransfected. Cell lysates were incubated with the GST fusion proteins as indicated and analyzed by immunoblotting with anti-ephrin B1 antibody. Immunoprecipitated ephrin B1 or ephrin B1 Val Δ were included as a positive control. FIG. 3A and FIG. 3B, GST-mixes with fusion proteins of FAP-1. C and D, GST-mixes with fusion proteins of syntenin.
(§1) Cos-1 cells were maintained in DMEM supplemented with 10% fetal bovine serum (FBS). Transient transfections were performed using Lipofectin reagent and Opti-MEM medium (Life Technologies Inc.) as outlined by the manufacturer. To reduce phosphorylation of ephrin B1 by binding to endogenously expressed EphB receptors or by stimulation with serum growth factors, transfected cells were transferred from 10 cm to 15 cm plates 24 h after transfection and serum starved in DMEM 0.5% FBS 12 h prior to cell lysis. Transfected cells were rinsed once in PBSA and lysed in PLC lysis buffer (5) with 10 μg/ml aprotonin, 10 μg/ml leupeptin, 1 mM sodium vanadate and 1 mM phenylmethylsulfonyl fluoride added. Immunoprecipitations were performed for 1 h at 4° C. using 1 μg anti-ephrin B1 antibody or 1 μg anti-IL-3 receptor a antibody with protein A-sepharose. […]

[2] = target: fluorescein-labelled NIpYYKV peptide; test: fluorescence polarization, 25 nM fluorescein-labelled peptide, GST fusion titrated, 22 C
Method: (§2) FIGS. 5A and 5B. Fluorescence polarization analysis of GST-FAP-1 PDZ3, GST-FAP-1 PDZ5 and GST-syntenin binding to Fluorescein-labelled peptides corresponding to the C-terminus of ephrin B1. FIG. 5 A, Solutions containing the indicated final concentration of GST-FAP-1 PDZ3 ( ) or GST-FAP-1 PDZ5 ( ) fusion protein in mixtures containing 25 nM fluorescein-labelled NIYYKV peptide probe, 20 mM phosphate pH 7.0, 100 mM NaCl, and 2 mM dithiothreitol (DTT) were monitored for fluorescence polarization at 22° C. The GST-FAP-1 PDZ5 fusion protein was also measured for binding to the phosphorylated peptides, NIpYYKV ( ), NiYpYKV ( ) and NIpYpYKV ( ). […] FIG. 5B, A Binding of a GST fusion of full-length syntenin to the NIYYKV ( ), NIpYYKV ( ), and NIpYpYKV ( ) peptides as measured by fluorescence polarization.
(§3) Binding constant determination and peptide competition studies were carried out using fluorescence polarization on a Beacon 2000 Fluorescence Polarization System (Pan Vera, Wis.) equipped with a 100-μl sample chamber. Fluorescein-labeled probes were prepared through reaction of B ephrin C-terminal peptides with 5-(and-6-)-carboxyfluorescein, succinimidyl ester (Molecular Probes, Oreg.) and purified by reverse-phase HPLC. The authenticity of the fluorescein-labelled peptides were confirmed by mass spectroscopy. In the binding studies, the fluorescein-labelled peptide probe was dissolved in 20 mM phosphate pH 7.0, 100 mM NaCl, and 2 mM DTT to a concentration of 25 nM and a known quantity of GST- fusion protein added. The reaction mixtures were allowed to stand for 10 min at room temperature prior to each measurement. All fluorescence polarization measurements were conducted at 22° C.
(§4) Fluorescence polarization experiments measuring GST-syntenin fusion protein binding to fluorescein-labeled NIYYKV (SEQ. ID. NO. 10) and NIpYYKV (SEQ. ID. NO. 8) peptides yielded nearly identical binding curves (FIG. 5B).

[3] = target: fluorescein-labelled NIpYpYKV peptide; test: as above
Method: as §2, §3, §4

ephrin B1 Val deletion [4] = target: T1, ephrin B1 Val deletion; test: co-immunoprecipitation from co-transfected Cos-1 cells, anti-FLAG blot
Method: (§5) FIG. 6. Co-immunoprecipitation of syntenin-FLAG with ephrin B1. Cos-1 cells were co-transfected with either ephrin B1 and syntenin-FLAG or with the ephrin B1 Val deletion and syntenin-FLAG as indicated. Cell lysates were immunoprecipitated with antibodies against ephrin B1 or IL-3 receptor a or were treated with protein A sepharose only. Immunocomplexes were subjected to SDS-PAGE (10%) and blotted with anti-FLAG antibodies.
as §1

protein A sepharose = target: T2, protein A sepharose (UniProt P38507 37-477); test: precipitation from Cos-1 cells co-transfected with ephrin B1 and syntenin-FLAG, anti-FLAG blot
T2 construct: Bead-only control in the co-immunoprecipitation; also called protein A sepharose alone
Method: as §5, §1

[5] = target: B1; test: fluorescence polarization, 25 nM fluorescein-labelled peptide, GST fusion titrated, 22 C
Method: as §2, §3, §4

B1 was tested, and the binding result (ephrin B1 Val deletion [1]) was “no binding”, the Kd [2] was 15.4 µM and the Kd [3] was 151 µM.

B2: no binding (ephrin B1 Val deletion [4]); no binding (protein A sepharose).

B3 was tested, and the Kd [5] was 17.7 µM.
